The text below walks through data of the RNAGym collection of RNA variant scans (doi:10.7554/elife.90254).

The labels stand for the following.
B1: LINE1-mini (parent)
chain: GGCAGAGCUCAACACAGCGUGGCAAAGUGGCUGUGGCUAGACUGCC

Variants of B1 are the subject of this data set. Kind of data set: self-cleavage, relative activity (ratio to wild type); higher = more cleavage; in vitro, sequencing; the parent is a self-cleaving ribozyme.
For C31U A39C, the self-cleavage worked out at 0.12.

For C31U A39G, the self-cleavage stood at 0.05.

Take C31U A39U: the self-cleavage was found to be 0.13.

On to C31A U43A, for which the self-cleavage was 0.08.

On to C31A U43G, for which the self-cleavage turned out to be 0.15.

As for C31A U43C, the self-cleavage came out at 0.05.

As for C31U C46G, the self-cleavage worked out at 0.08.

As for C31U C46A, the self-cleavage amounted to 0.15.

C31U C46U: the self-cleavage came out at 0.23.

With C31G U34A, the self-cleavage came out at 0.03.

For C31G U34G, the self-cleavage is 0.04.

For the variant C31G U34C, the self-cleavage is 0.14.

With U32C U34G, the self-cleavage was found to be 0.08.

For U32C U34A, the self-cleavage turned out to be 0.05.

In the case of U32C U34C, the self-cleavage is 0.16.

For C31U G40U, the self-cleavage was 0.04.

Turning to C31U G40A, the self-cleavage was 0.04.

Regarding C31U G40C, the self-cleavage was 0.03.

Regarding C31U C45G, the self-cleavage was determined as 0.1.

On to C31U C45U, for which the self-cleavage is 0.18.

On to C31U C45A, for which the self-cleavage worked out at 0.13.

On to U32G G44A, for which the self-cleavage amounted to 0.08.

With U32G G44C, the self-cleavage is 0.06.

Consider U32G G44U, for which the self-cleavage came to 0.05.

For the variant G30U U32A, the self-cleavage came out at 0.13.

Consider G30U U32G, for which the self-cleavage turned out to be 0.08.

For the variant G30U U32C, the self-cleavage came to 0.23.

U32C C45U: the self-cleavage was 0.12.

Regarding U32C C45A, the self-cleavage was found to be 0.2.

As for U32C C45G, the self-cleavage is 0.03.

On to C31U G35U, for which the self-cleavage turned out to be 0.07.

In the case of C31U G35A, the self-cleavage is 0.03.

For the variant C31U G35C, the self-cleavage amounted to 0.04.

On to G30U A39C, for which the self-cleavage came to 0.19.

In the case of G30U A39U, the self-cleavage was determined as 0.87.

G30U A39G: the self-cleavage turned out to be 0.09.

As for C31G C42G, the self-cleavage amounted to 0.06.

Turning to C31G C42U, the self-cleavage is 0.09.

On to C31G C42A, for which the self-cleavage was 0.05.

Consider C31A G44A, for which the self-cleavage was determined as 0.06.

Consider C31A G44U, for which the self-cleavage came to 0.04.

As to C31A G44C, the self-cleavage worked out at 0.04.

On to C31G C46A, for which the self-cleavage stood at 0.06.

On to C31G C46G, for which the self-cleavage was found to be 0.04.

As for C31G C46U, the self-cleavage amounted to 0.07.

Regarding U32G C42G, the self-cleavage is 0.14.

For the variant U32G C42A, the self-cleavage is 0.04.

U32G C42U: the self-cleavage was 0.11.

For G30U G35A, the self-cleavage was determined as 0.05.

Turning to G30U G35C, the self-cleavage amounted to 0.07.

G30U G35U: the self-cleavage was found to be 0.08.

Turning to U32C U38A, the self-cleavage was 0.37.

For U32C U38C, the self-cleavage is 0.06.

As for U32C U38G, the self-cleavage is 0.01.

With G30U C46G, the self-cleavage turned out to be 1.29.

On to G30U C46A, for which the self-cleavage is 1.42.

As for G30U C46U, the self-cleavage turned out to be 1.24.

Consider U32G G36C, for which the self-cleavage amounted to 0.05.

For the variant U32G G36A, the self-cleavage is 0.09.

On to U32G G36U, for which the self-cleavage was determined as 0.1.

As for U32A C42G, the self-cleavage came to 0.06.

Consider U32A C42U, for which the self-cleavage came to 0.05.

As for U32A C42A, the self-cleavage is 0.05.

Consider U32C G40A, for which the self-cleavage was found to be 0.06.

In the case of U32C G40C, the self-cleavage worked out at 0.03.

For U32C G40U, the self-cleavage stood at 0.07.

Turning to U32G U34C, the self-cleavage was 0.06.

For U32G U34G, the self-cleavage stood at 0.03.

Turning to U32G U34A, the self-cleavage was 0.04.

Consider G30U A41G, for which the self-cleavage came out at 0.35.

As for G30U A41U, the self-cleavage is 0.64.

With G30U A41C, the self-cleavage amounted to 0.06.

As to G30U, the self-cleavage was found to be 1.62.

For the variant G30U G40C, the self-cleavage was 0.09.

Consider G30U G40A, for which the self-cleavage was 0.08.

Consider G30U G40U, for which the self-cleavage came out at 0.13.

As for C31G U43A, the self-cleavage was determined as 0.13.

Turning to C31G U43C, the self-cleavage was found to be 0.05.

For the variant C31G U43G, the self-cleavage is 0.05.

Take U32G: the self-cleavage turned out to be 0.19.

For the variant U32C, the self-cleavage came out at 0.2.

As to U32A, the self-cleavage was found to be 0.1.

For C31A C42A, the self-cleavage came to 0.04.

With C31A C42U, the self-cleavage stood at 0.05.

Take C31A C42G: the self-cleavage turned out to be 0.05.

Turning to C31G U38G, the self-cleavage is 0.03.

In the case of C31G U38A, the self-cleavage is 0.09.

For C31G U38C, the self-cleavage worked out at 0.07.

As for C31G G33U, the self-cleavage was 0.06.

On to C31G G33C, for which the self-cleavage is 0.03.

C31G G33A: the self-cleavage stood at 0.05.

On to G30U G36A, for which the self-cleavage was found to be 0.19.

G30U G36C: the self-cleavage amounted to 0.11.

Turning to G30U G36U, the self-cleavage came out at 0.05.

With C31G C37G, the self-cleavage stood at 0.04.

Turning to C31G C37A, the self-cleavage was determined as 0.09.

Turning to C31G C37U, the self-cleavage worked out at 0.05.

Regarding C31G G36U, the self-cleavage is 0.05.

Consider C31G G36C, for which the self-cleavage turned out to be 0.04.

For the variant C31G G36A, the self-cleavage is 0.1.

As to U32C G44A, the self-cleavage was 0.07.

Turning to U32C G44U, the self-cleavage came out at 0.07.

In the case of U32C G44C, the self-cleavage came to 0.09.

Consider U32C A39C, for which the self-cleavage was 0.08.

For U32C A39G, the self-cleavage was 0.07.

For the variant U32C A39U, the self-cleavage was 0.15.

With U32G U43G, the self-cleavage stood at 0.04.

U32G U43A: the self-cleavage was found to be 0.04.

For U32G U43C, the self-cleavage worked out at 0.07.

With U32G A39U, the self-cleavage was found to be 0.1.

For the variant U32G A39C, the self-cleavage was 0.09.

On to U32G A39G, for which the self-cleavage stood at 0.8.

In the case of U32C G33U, the self-cleavage is 0.13.

Consider U32C G33A, for which the self-cleavage turned out to be 0.05.

U32C G33C: the self-cleavage is 0.04.

Regarding U32A G44C, the self-cleavage worked out at 0.07.

With U32A G44U, the self-cleavage was 0.06.

Take U32A G44A: the self-cleavage is 0.23.

Regarding G33A A41G, the self-cleavage came to 0.11.

Regarding G33A A41C, the self-cleavage came out at 0.07.

Regarding G33A A41U, the self-cleavage was found to be 0.11.

On to C31G G44U, for which the self-cleavage amounted to 0.05.

Consider C31G G44C, for which the self-cleavage is 0.05.

For C31G G44A, the self-cleavage stood at 0.05.

Consider C31A G35C, for which the self-cleavage amounted to 0.04.

Take C31A G35A: the self-cleavage is 0.04.

As for C31A G35U, the self-cleavage was 0.06.

As to C31G A39U, the self-cleavage is 0.06.

On to C31G A39G, for which the self-cleavage is 0.03.

Regarding C31G A39C, the self-cleavage came out at 0.12.

Regarding U32G C45G, the self-cleavage came out at 0.11.

For the variant U32G C45U, the self-cleavage amounted to 0.12.

U32G C45A: the self-cleavage was 0.1.

For the variant U32C U43G, the self-cleavage was 0.13.

Take U32C U43C: the self-cleavage was determined as 0.05.

Consider U32C U43A, for which the self-cleavage came out at 0.05.

Regarding U32A G36C, the self-cleavage was 0.11.

For U32A G36U, the self-cleavage amounted to 0.05.

For the variant U32A G36A, the self-cleavage stood at 0.06.

In the case of G30U G44U, the self-cleavage came to 0.21.

On to G30U G44C, for which the self-cleavage turned out to be 0.16.

In the case of G30U G44A, the self-cleavage came to 0.42.

On to G30U C37U, for which the self-cleavage was determined as 0.05.

On to G30U C37G, for which the self-cleavage is 0.05.

In the case of G30U C37A, the self-cleavage amounted to 0.08.

Consider U32A C46U, for which the self-cleavage is 0.1.

As to U32A C46A, the self-cleavage is 0.08.

On to U32A C46G, for which the self-cleavage turned out to be 0.28.

Turning to C31A A41C, the self-cleavage is 0.03.

For the variant C31A A41U, the self-cleavage is 0.09.

With C31A A41G, the self-cleavage came out at 0.08.

With C31A G36U, the self-cleavage came to 0.12.

Take C31A G36C: the self-cleavage was determined as 0.13.

Turning to C31A G36A, the self-cleavage was found to be 0.11.

G33A: the self-cleavage amounted to 0.11.

C31A G33A: the self-cleavage amounted to 0.06.

Regarding C31A G33U, the self-cleavage is 0.08.

Regarding C31A G33C, the self-cleavage came out at 0.1.

For C31A C37A, the self-cleavage was determined as 0.08.

With C31A C37U, the self-cleavage is 0.09.

In the case of C31A C37G, the self-cleavage amounted to 0.07.

As for C31U C42G, the self-cleavage was determined as 0.04.

As to C31U C42A, the self-cleavage was 0.09.

As for C31U C42U, the self-cleavage was found to be 0.09.

As to C31U U43C, the self-cleavage was 0.06.

Take C31U U43A: the self-cleavage was 0.06.

As to C31U U43G, the self-cleavage was determined as 0.02.
